Measured values: PMC1764712, “Recruitment and Activation of RSK2 by HIV-1 Tat” (PLoS ONE, 2007)

B1: GST-Tat 1–86 (natural protein)
chain: MEPVDPRLEPWKHPGSQPKTACTNCYCKKCCFHCQVCFITKALGISYGRKKRRQRRRAHQNSQTHQASLSKQPTSQPRGDPTGPKE
notes: HIV-1 Tat amino acids 1-86; also called GST-Tat (amino acids 1–86); recombinant Tat (amino acids 1–86) fused to the C-terminus of GST; source: E. coli BL21, purified (glutathione-sepharose); not shown: GST, N-terminal, kept

What was measured:
[1] = target: Endogenous RSK2 of Cos7 cells (African green monkey (endogenous in Cos7))
[2] = target: T1, Full-length human recombinant RSK2 isolated from insect cells (human, UniProt P51812 1-740); experiment: pull-down; GST proteins immobilised on glutathione-sepharose, incubated with 200 ng human recombinant RSK2; binding buffer 20 mM Hepes pH 7.9, 1% Triton, 0.5% NP-40, 200 mM KCl; washes with 1 M KCl; western blot with α-RSK2; settings: both partners purified
T1 construct: Human ribosomal S6 protein kinase 2 (RSK2), full length; also called full-length recombinant RSK2; source: bought: Upstate Biotechnology (isolated from insect cells)
T1 sequence (P51812 whole entry): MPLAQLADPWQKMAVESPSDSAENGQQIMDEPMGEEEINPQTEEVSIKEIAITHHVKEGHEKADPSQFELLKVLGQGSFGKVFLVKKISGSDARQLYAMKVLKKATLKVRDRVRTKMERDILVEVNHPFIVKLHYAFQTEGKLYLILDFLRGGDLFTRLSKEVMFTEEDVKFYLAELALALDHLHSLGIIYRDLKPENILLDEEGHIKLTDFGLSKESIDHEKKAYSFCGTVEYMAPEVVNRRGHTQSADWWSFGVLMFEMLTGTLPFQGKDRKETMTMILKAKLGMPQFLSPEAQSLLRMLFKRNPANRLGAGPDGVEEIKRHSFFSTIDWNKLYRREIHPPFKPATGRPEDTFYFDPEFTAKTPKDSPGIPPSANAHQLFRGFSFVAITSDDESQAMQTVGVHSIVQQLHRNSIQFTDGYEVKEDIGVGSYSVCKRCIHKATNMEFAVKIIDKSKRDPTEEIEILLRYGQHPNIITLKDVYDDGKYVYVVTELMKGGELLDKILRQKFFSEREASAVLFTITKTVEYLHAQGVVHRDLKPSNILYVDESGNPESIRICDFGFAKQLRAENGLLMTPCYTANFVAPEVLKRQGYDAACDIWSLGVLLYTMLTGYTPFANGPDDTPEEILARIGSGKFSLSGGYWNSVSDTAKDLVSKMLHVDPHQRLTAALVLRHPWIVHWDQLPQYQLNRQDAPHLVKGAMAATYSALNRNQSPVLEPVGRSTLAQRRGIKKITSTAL

| Molecule | S6 peptide phosphorylation assay of endogenous RSK2 immunoprecipitated from Cos7 cells transfected with Tat [1] [fold] | binding result [2] |
| --- | --- | --- |
| Full-length Tat (101 amino acids) bearing a C-terminal FLAG tag (natural protein) | 3 |  |
| B1 |  | binds |
